Experimental data published in patent US20220259325A1.

Columns and labels:
[1] = molecular target: human MASP-1 (protein in human serum) (human)
[2] = molecular target: human MASP-2 (protein in human serum or plasma) (human)

human MASP-1 (protein in human serum) (human), sequence (chain, as listed by the source): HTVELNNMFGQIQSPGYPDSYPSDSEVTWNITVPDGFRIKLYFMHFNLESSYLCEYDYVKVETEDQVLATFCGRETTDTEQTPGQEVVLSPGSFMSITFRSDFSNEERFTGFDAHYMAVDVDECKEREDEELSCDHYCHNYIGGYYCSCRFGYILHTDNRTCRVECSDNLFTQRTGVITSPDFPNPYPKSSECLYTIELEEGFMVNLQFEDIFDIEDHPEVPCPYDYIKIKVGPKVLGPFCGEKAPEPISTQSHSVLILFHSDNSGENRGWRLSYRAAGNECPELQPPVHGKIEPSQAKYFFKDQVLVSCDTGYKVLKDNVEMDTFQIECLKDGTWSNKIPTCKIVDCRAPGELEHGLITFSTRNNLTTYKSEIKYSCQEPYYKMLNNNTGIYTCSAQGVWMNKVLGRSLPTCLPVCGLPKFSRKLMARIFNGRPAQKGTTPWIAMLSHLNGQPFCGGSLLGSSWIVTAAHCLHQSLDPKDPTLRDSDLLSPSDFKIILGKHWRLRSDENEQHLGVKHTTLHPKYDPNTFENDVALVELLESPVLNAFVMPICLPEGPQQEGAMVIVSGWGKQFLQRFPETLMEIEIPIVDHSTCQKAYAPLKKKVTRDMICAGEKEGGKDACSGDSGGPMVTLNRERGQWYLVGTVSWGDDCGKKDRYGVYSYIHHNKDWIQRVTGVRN

In the case of “SGMI-1Fc (mature polypeptide fusion comprising SGMI-1, linker #1 and human IgG1-Fc) (Fc fusion)”, the C3b deposition from 1% normal human serum on mannan-coated wells (IC50) [1] is reported as 27 nM.

“SGMI-2Fc (mature polypeptide fusion comprising SGMI-2, linker #1 and human IgG1-Fc) (Fc fusion)” gave a C3b deposition from 1% normal human serum on mannan-coated wells (IC50) [2] of 300 nM.
